Experimental data as given in US20110135573A1, “METALLOPROTEINASE 9 AND METALLOPROTEINASE 2 BINDING PROTEINS” (DYAX CORP., priority 2009, published 2011).
Numbering of substitutions follows the chain as printed. Each block holds one molecule with its values, some of them ahead of it.

Key:
MMP-9 [1] = biological target: T1, MMP-9 (Homo sapiens, UniProt P14780); experiment: Enzyme inhibition assay (single point inhibition, IC50/Ki,app), substrate M-2350; format: biochemical; parameters: Human MMP-9 catalytic domain (BIOMOL, SE-244); purchased BIOMOL SE-244; conditions: light chain shuffled antibodies
Protocol: (§1) 343 unique sFabs from the anti-MMP-9/-2 M237-D02 affinity maturation campaign were discovered by phage display, produced in small scale (6 mL cultures in deep 24-well plates) and screened to select inhibitors with sub-nanomolar potency against the human enzymes and at least single-digit nanomolar potency toward the mouse orthologues. […] Isolates which appeared potent against both human and mouse MMP-2 were then subjected to IC50 analysis against hMMP-9. Sub-nanomolar inhibitors of hMMP-9 were further tested by IC50 analysis against mMMP-9 and h/m MMP-2, if sufficient small-scale sFab material was available. Thirteen potential h/m MMP-9/-2 sFab inhibitors were then produced in medium scale (250 mL cultures in flasks) and retested for h/m MMP-9 and h/m MMP-2 inhibition. Five potential lead candidates were reformatted as IgGs and retested in enzyme inhibition assays.
Human MMP-9 (Biomol #SE-244), mouse MMP-9 (R&D Systems #909-MM-010), human MMP-2 (Biomol #SE-237) and mouse MMP-2 (R&D Systems #924-MP-010) were tested at final concentrations of 1 nM, 0.25-0.4 nM, 2.5 nM and 0.2 nM, respectively. Target enzymes were incubated with inhibitor for two hours at 30° C. in reaction buffer (50 mM Tris-HCl pH 7.5, 150 mM NaCl, 5 mM CaCl2, 0.05% Brij-35) in a total volume of 90 μL using a white 96 well plate (Costar). Reactions contained 5 μL of small-scale sFab stock solution (average concentration of 500 nM) for single point inhibition analysis or a concentration series of sFab/IgG for IC50 Ki,app determinations. […] Reactions were initiated by the addition of 10 μL of a 10× concentrated stock of substrate, Mca-Lys-Pro-Leu-Gly-Leu-Dap(Dnp)-Ala-Arg-NH2, (Bachem M-2350), at final concentration of 10 μM and monitored at 30° C. in a Molecular Devices' Gemini fluorescence plate reader. […] Kinetic data were acquired by the increase in fluorescence, and initial rates for each condition were plotted against the total inhibitor concentration. […]
Target sequence in this assay (P14780 107-444 limits assumed): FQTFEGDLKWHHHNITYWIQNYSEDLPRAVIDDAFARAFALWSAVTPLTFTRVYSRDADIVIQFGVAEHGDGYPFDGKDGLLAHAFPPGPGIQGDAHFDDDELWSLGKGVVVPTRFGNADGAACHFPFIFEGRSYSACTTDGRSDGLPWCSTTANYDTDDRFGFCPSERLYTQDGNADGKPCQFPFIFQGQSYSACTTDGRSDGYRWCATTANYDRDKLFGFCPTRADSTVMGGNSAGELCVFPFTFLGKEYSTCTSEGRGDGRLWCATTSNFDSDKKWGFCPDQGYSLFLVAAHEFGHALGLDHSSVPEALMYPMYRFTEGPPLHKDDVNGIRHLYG

human MMP-2 = biological target: T2, human MMP-2 (Homo sapiens, UniProt P08253); experiment: as above; format: biochemical; conditions: light chain shuffled antibodies
T2 construct: purchased Biomol SE-237
Protocol: as §1
(§2) Human MMP-9 (Biomol #SE-244), mouse MMP-9 (R&D Systems #909-MM-010), human MMP-2 (Biomol #SE-237) and mouse MMP-2 (R&D Systems #924-MP-010) were tested at final concentrations of 1 nM, 0.25-0.4 nM, 2.5 nM and 0.2 nM, respectively. Target enzymes were incubated with inhibitor for two hours at 30° C. in reaction buffer (50 mM Tris-HCl pH 7.5, 150 mM NaCl, 5 mM CaCl2, 0.05% Brij-35) in a total volume of 90 μL using a white 96 well plate (Costar). Reactions contained 5 μL of small-scale sFab stock solution (average concentration of 500 nM) for single point inhibition analysis or a concentration series of sFab/IgG for IC50 Ki,app determinations. Commercially available anti-MMP-9 antibodies (Millipore mAb 13415 and R&D Systems polyclonal IgG #AB911) were tested by IC50 analyses using 100 nM and 500 nM as the highest inhibitor concentrations, respectively. An anti-MMP-2 antibody (R&D Systems polyclonal IgG #AF902) was similarly tested with 200 nM as the highest inhibitor concentration. Reactions were initiated by the addition of 10 μL of a 10× concentrated stock of substrate, Mca-Lys-Pro-Leu-Gly-Leu-Dap(Dnp)-Ala-Arg-NH2, (Bachem M-2350), at final concentration of 10 μM and monitored at 30° C. in a Molecular Devices' Gemini fluorescence plate reader. The excitation and emission wavelengths were set at 328 nm and 393 nm, respectively. Kinetic data were acquired by the increase in fluorescence, and initial rates for each condition were plotted against the total inhibitor concentration. Reactions were performed in duplicates and all data replicates were plotted in a single graph and fit to the following equation^1:
(§3) Where A=initial rate observed at each inhibitor concentration; Ao=initial rate observed in the absence of inhibitor; Ainh=initial rate observed for the enzyme inhibitor complex; Inh=concentration of inhibitor; E=total enzyme concentration (treated as a floated parameter); and Ki,app=apparent equilibrium inhibition constant.

Mouse MMP-9 = biological target: T3, Mouse MMP-9 (Mus musculus, UniProt P41245); experiment: as above; format: biochemical; conditions: light chain shuffled antibodies
T3 construct: purchased R&D Systems 909-MM (909-MM-010)
Protocol: as §1, §2, §3

mouse MMP-2 = biological target: T4, mouse MMP-2 (Mus musculus, UniProt P33434); experiment: as above; format: biochemical; conditions: for inhibition of mouse MMP-2 (in words): light chain shuffled antibodies; for Ki: IgG, Table 12
T4 construct: purchased R&D Systems 924-MP-010
Protocol: as §1, §2, §3

human TIMP-1 = biological target: T5, human TIMP-1 (Homo sapiens, UniProt P01033); experiment: Biacore 3000 binding to antibody-coated CM5 chip; conditions: Direct capture; 25° C.
T5 construct: purchased R&D Systems 970-TM
Protocol: (§4) Experiments were performed at 25° C. with the help of a Biacore 3000 instrument. The MMP-9 binding protein (M0166F10) and the M0237-D02 antibody were coated to a CM5 chip either via standard amine coupling or using an anti-Fc antibody surface. Then either the active, human MMP-9 catalytic domain (BIOMOL, SE-244), the human pro-MMP-9 (R&D, 911-MP), the human TIMP-1 (R&D, 970-TM) or a h-MMP-9/h-TIMP-1 complex were flowed over the antibody surfaces, and binding was recorded.

[2] = biological target: T6, Human MMP-9 catalytic domain (Homo sapiens, UniProt P14780); experiment: Biacore 3000 binding to antibody-coated CM5 chip; conditions: 25° C.
T6 construct: Human MMP-9 catalytic domain (BIOMOL, SE-244); purchased BIOMOL SE-244
Protocol: as §4

human pro-MMP-9 = biological target: T7, human pro-MMP-9 (Homo sapiens, UniProt P14780); experiment: Biacore 3000 binding to antibody-coated CM5 chip; conditions: Direct capture, 25° C.
T7 construct: the human pro-MMP-9 (R&D, 911-MP); purchased R&D Systems 911-MP
Protocol: as §4

h-MMP-9/h-TIMP-1 complex = h-MMP-9/h-TIMP-1 complex (Homo sapiens, UniProt P14780); experiment: Biacore 3000 binding to antibody-coated CM5 chip; conditions: Direct capture, 25° C.
Protocol: The non competitive inhibition model implies that the ternary complex enzyme-substrate-inhibitor can form. It is however possible that this complex cannot form with bigger substrates, in which case the antibody would behave as a competitive inhibitor. In order to address this issue, the ability of M0237-D02 antibody to bind to the h-MMP-9 when the enzyme is complexed to its natural inhibitor h-TIMP-1 was determined. The reasoning is that if the antibody cannot bind to the h-MMP-9/h-TIMP-1 complex, it would probably behave as a competitive inhibitor of this enzyme in the presence of bigger substrates.
as §4

MMP-9 [3] = biological target: T1, MMP-9; experiment: Initial screen of sFabs/IgG1s for inhibition of MMP-9 at 1 μM; format: biochemical
Protocol: After sequencing analysis, the phage display were converted into sFabs and then into IgG1s. Their ability to inhibit MMP-9 and other MMPs (1, 3, 7, 8, 9, 10, 12, 13, 14) was determined by usual means. Compounds were initially screened at 1 μM against MMP-9 and those compounds that inhibited MMP-9 >80% were subjected to additional screens against purified recombinant human MMP-2 (APMA activated enzyme) and other MMPs. For these additional screens, an IC50 value was determined. Ki values and specificities of the inhibitors were determined as described below.
Target sequence in this assay (P14780 94-707): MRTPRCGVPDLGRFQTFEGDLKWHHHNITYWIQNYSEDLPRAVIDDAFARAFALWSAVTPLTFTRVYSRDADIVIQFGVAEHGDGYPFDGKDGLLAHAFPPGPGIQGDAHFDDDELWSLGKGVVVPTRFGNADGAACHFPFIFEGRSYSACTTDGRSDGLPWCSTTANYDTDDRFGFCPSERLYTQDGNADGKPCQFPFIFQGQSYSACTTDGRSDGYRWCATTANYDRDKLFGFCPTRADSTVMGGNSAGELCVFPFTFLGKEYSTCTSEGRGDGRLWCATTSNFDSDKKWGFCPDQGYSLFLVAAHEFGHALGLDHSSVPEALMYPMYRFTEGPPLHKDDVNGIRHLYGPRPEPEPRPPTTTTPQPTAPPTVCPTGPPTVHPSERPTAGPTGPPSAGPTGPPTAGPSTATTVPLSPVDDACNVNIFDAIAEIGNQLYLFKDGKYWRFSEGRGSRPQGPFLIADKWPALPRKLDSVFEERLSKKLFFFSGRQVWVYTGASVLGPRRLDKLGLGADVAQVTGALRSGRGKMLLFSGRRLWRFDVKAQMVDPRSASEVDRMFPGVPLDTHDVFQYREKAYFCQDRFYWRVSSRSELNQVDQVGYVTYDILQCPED

MMP-9 [4] = biological target: T1, MMP-9; experiment: Binding of non-inhibiting Fabs to MMP-9 (apparent KD, dissociation t1/2, TIMP-1 competition); conditions: Fab
Target sequence in this assay (P14780 94-707): as above

T6 sequence (P14780 107-444 limits assumed): as the sequence (P14780 107-444 limits assumed) above
T4 sequence (P33434 110-662): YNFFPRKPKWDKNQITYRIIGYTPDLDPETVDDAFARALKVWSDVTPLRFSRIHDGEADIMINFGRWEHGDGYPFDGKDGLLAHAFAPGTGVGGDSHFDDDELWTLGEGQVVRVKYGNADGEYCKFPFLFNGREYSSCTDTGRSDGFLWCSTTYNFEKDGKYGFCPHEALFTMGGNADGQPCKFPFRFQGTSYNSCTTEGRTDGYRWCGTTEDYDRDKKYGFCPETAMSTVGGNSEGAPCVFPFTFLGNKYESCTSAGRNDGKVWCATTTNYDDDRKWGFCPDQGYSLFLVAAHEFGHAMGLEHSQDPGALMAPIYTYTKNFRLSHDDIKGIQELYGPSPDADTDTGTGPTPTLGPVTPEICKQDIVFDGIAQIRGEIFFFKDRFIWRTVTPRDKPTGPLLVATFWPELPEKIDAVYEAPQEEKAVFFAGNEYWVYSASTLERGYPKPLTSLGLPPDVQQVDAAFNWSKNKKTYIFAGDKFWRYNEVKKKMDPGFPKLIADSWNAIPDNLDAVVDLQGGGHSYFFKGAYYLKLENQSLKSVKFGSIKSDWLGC
Chain of h-MMP-9/h-TIMP-1 complex (P14780 107-444 limits assumed): as the sequence (P14780 107-444 limits assumed) above
Chain of h-MMP-9/h-TIMP-1 complex (P01033 24-207 partner): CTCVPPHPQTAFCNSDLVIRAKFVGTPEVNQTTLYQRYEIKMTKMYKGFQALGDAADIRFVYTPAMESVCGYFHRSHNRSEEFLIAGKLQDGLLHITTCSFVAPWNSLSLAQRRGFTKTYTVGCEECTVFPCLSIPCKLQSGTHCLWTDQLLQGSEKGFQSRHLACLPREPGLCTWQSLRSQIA
T2 sequence (P08253 110-446 limits assumed): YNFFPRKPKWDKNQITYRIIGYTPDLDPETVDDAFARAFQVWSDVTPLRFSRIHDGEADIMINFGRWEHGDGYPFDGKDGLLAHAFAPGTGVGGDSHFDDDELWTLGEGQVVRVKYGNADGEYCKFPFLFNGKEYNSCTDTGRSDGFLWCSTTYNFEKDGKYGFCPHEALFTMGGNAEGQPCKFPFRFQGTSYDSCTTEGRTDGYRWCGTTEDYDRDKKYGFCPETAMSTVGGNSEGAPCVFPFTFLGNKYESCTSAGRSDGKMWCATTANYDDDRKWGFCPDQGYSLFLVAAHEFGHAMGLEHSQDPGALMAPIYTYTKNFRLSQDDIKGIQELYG
T3 sequence (P41245 108-730): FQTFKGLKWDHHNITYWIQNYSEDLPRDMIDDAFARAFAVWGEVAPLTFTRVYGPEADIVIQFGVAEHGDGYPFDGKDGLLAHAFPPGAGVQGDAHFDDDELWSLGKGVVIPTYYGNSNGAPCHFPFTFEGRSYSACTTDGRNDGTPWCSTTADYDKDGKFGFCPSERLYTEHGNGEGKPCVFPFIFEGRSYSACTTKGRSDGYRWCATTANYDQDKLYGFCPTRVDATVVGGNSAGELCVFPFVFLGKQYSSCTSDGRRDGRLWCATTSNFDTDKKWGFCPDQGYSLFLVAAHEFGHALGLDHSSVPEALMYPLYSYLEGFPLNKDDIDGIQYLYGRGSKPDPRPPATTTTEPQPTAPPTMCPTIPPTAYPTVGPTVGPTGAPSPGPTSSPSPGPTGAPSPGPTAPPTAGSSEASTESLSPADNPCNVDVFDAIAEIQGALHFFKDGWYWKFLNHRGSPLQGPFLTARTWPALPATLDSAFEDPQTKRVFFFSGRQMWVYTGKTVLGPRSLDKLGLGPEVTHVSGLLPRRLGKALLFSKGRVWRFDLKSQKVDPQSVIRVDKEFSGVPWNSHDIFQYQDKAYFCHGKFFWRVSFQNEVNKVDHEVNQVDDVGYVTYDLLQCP
T7 sequence (P14780 20-707 limits assumed): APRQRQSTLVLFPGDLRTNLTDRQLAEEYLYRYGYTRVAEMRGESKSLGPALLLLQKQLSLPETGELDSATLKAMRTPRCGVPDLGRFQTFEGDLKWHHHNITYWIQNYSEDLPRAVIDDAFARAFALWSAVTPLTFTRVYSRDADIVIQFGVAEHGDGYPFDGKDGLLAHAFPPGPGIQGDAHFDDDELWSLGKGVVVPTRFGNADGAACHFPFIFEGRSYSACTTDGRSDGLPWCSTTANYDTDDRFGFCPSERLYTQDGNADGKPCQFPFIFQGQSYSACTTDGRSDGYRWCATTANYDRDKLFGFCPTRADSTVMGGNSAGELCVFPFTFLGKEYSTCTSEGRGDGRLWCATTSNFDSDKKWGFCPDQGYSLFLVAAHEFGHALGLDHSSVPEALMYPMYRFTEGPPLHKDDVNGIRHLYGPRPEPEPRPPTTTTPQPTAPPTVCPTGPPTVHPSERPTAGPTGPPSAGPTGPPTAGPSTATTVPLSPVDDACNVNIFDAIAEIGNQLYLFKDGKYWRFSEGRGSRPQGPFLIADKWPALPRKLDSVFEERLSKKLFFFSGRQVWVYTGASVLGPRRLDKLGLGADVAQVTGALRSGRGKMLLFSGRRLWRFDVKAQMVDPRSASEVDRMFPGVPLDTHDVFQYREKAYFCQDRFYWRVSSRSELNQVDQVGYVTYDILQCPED
T5 sequence (P01033 24-207): as the sequence (P01033 24-207 partner) above

B2: X0106-B02: germlined, optimized version of M0276-F11, IgG1 (antibody, V domains shown)
VH: EVQLLESGGGLVQPGGSLRLSCAASGFTFSWYDMWWVRQAPGKGLEWVSVIYSSGGPTFYADSVKGRFTISRDNSKNTLYLQMNSLRAEDTAVYYCAKDRAYGDYVGWNGFDYWGQGTLVTVSS
VL: EIVLTQSPATLSLSPGERATLSCRASQSISSFLAWYQQKPGQAPRLLIYDASYRATGIPARFSGSGSGTDFTLTISSLEPEDFAVYYCQQRGNWPITFGQGTRLEIK
Ki (mouse MMP-2): 4.2 nM

B4: X0106-A01: germlined, optimized version of M0256-D11, IgG1 (antibody, V domains shown)
VH: B2 VH with W31H
VL: B2 VL
Ki (mouse MMP-2): 4.7 nM

B6: X0106-C03: germlined, optimized version of M0274-G08, IgG1 (antibody, V domains shown)
VH: B2 VH with W31V, S53P, P57A, F59Y
VL: B2 VL
Ki (mouse MMP-2): 3.2 nM

B8: M0078-G07: Fab that binds MMP-9 but does not inhibit (antibody, V domains shown)
VH: EVQLLESGGGLVQPGGSLRLSCAASGFTFSSYTMEWVRQAPGKGLEWVSWISPSGGYTFYADSVKGRFTISRDNSKNTLYLQMNSLRAEDTALYYCARGYSYGSIDLWGRGTLVTVSS
VL: QDIQMTQSPGTLSVSPGERATLSCRASQSVSSDLAWYQHKPGQAPRLLIYGVSTKATGVPARFSGSGSGTEFTLTISSLQSEDLAVYYCQQYHNWPPLTFGGGTKVEIK
inhibition of the catalytic activity of MMP-9 (MMP-9 [3]): Neither antibody inhibits
competition with TIMP-1 (MMP-9 [4]): does not compete with TIMP-1
dissociation t1/2 (MMP-9 [4]): 25 min

B10: M0076-D03: Fab that binds MMP-9 but does not inhibit (antibody, V domains shown)
VH: EVQLLESGGGLVQPGGSLRLSCAASGFTFSLYRMNWVRQAPGKGLEWVSYIGSSGGATAYADSVKGRFTISRDNSKNTLYLQMNSLRAEDTAVYYCARGAWYLDSWGQGTLVTVSS
VL: QDIQMTQSPSSLSASVGDRVTITCRASQGIRNDLDWYQQKPGTAPKRLIYSASNLQSGVPSRFSGSGSGTEFTLTISNLQPEDLATYFCLQHNSFPLTFGQGTKVEIK
inhibition of the catalytic activity of MMP-9 (MMP-9 [3]): Neither antibody inhibits
competition with TIMP-1 (MMP-9 [4]): does not compete with TIMP-1
dissociation t1/2 (MMP-9 [4]): 33 min

Now from value to molecule:

inhibition of human MMP-9 (in words) (MMP-9 [1]): bind and inhibit
inhibition of human MMP-2 (in words) (human MMP-2): do not inhibit
inhibition of mouse MMP-9 (in words) (Mouse MMP-9): bind and inhibit
inhibition of mouse MMP-2 (in words) (mouse MMP-2): do not inhibit
B1: M0279-A03: MMP-9 specific antibody from light chain shuffling of M237-D02, sFab (antibody, V domains shown)
VH: B2 VH with W31Q, D33P, V50Y, Y52V, S53P, P57R, F59Y
VL: QDIQMTQSPATLSVSPGERVTLSCKASHSISRNLAWYQQKPGQAPRLLIFGASTRATGIPARFSGSGSGTEFTLTISSLEAEDFAVYYCQQRRNWPVTFGPGTKLDFK

inhibition of human MMP-9 (in words) (MMP-9 [1]): bind and inhibit
inhibition of human MMP-2 (in words) (human MMP-2): do not inhibit
inhibition of mouse MMP-9 (in words) (Mouse MMP-9): bind and inhibit
inhibition of mouse MMP-2 (in words) (mouse MMP-2): do not inhibit
B3: M0288-C08: MMP-9 specific antibody from light chain shuffling of M237-D02, sFab (antibody, V domains shown)
VH: B2 VH with W31Q, D33P, V50Y, Y52V, S53P, P57R, F59Y
VL: QDIQMTQSPGTLSVSPGERVTLSCRASQSVSSYLAWYQQKPGQAPRLLIYGASTRVTGIPARFSGSGSGTEFTLTISSLQSEDFAVYYCQQRSSWPITFGQGTRLEIK

Ki (mouse MMP-2): 3 nM
B5: X0106-F05: germlined, optimized version of M0307-F04, IgG1 (antibody, V domains shown)
VH: B2 VH with W31L, P57Y, F59G
VL: B2 VL

binding of huTIMP-1 (human TIMP-1): No
binding of Cat-huMMP-9 ([2]; Direct capture (amine coupling)): binds
binding of Cat-huMMP-9 ([2]; Direct capture (amine coupling), listed as 539A-M0166F10): Yes
binding of Cat-huMMP-9 ([2]; Fc capture (anti-Fc antibody surface)): binds
binding of Cat-huMMP-9 ([2]; Fc capture (anti-Fc antibody surface), listed as 539A-M0166F10): Yes
binding of Pro-huMMP-9 (human pro-MMP-9): observed neither
binding of Pro-huMMP-9 (human pro-MMP-9; listed as 539A-M0166F10): ~No
binding of huTIMP-1/cat-huMMP-9 (h-MMP-9/h-TIMP-1 complex): no binding was observed
binding of huTIMP-1/cat-huMMP-9 (h-MMP-9/h-TIMP-1 complex; listed as 539A-M0166F10): No
B7: M0166-F10: inhibitory MMP-9 binding antibody (hMMP-9 antibody inhibitor) (antibody, V domains shown)
VH: EVQLLESGGGLVQPGGSLRLSCAASGFTFSPYLMNWVRQAPGKGLEWVSSIYSSGGGTGYADSVKGRFTISRDNSKNTLYLQMNSLRAEDTAVYYCARIYHSSSGPFYGMDVWGQGTTVTVSS
VL: QSELTQPPSASAAPGQRVTISCSGSSSNIGSNTVTWYQKLPGTAPKLLIYNNYERPSGVPARFSGSKSGTSASLAISGLQSEDEADYYCATWDDSLIANYVFGSGTKVTVLGQPKANP

Ki (mouse MMP-2): 3.9 nM
B9: X0106-E04: germlined, optimized version of M0275-D03, IgG1 (antibody, V domains shown)
VH: EVQLLESGGGLVQPGGSLRLSCAASGFTFSQYDMWWVRQAPGKGLEWVSVIYPSGTTFYADSVKGRFTISRDNSKNTLYLQMNSLRAEDTAVYYCAKDRAYGDYVGWNGFDYWGQGTLVTVSS
VL: B2 VL
